Patent publication US20240000960A1 (CLEVELAND CLINIC FOUNDATION, published 2024)

Molecular target: T1, CD6 (as used in surface plasmon resonance) (human, UniProt P30203 18-402, limits assumed)
T1 construct: also called human CD6
T1 sequence (looked up): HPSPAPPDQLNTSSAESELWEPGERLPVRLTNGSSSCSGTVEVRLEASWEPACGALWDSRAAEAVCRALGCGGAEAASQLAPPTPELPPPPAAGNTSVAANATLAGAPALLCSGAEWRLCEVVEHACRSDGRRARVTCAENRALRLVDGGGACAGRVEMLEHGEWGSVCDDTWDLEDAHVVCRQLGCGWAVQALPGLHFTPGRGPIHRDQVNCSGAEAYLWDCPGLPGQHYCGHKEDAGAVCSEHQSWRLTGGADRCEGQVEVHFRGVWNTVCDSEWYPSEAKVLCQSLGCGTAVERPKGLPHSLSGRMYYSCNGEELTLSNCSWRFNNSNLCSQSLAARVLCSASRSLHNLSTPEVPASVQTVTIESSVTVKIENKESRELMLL
Assay: surface plasmon resonance

B1: mouse anti-human CD6 IgG (UMCD6) (antibody, V domains shown)
VH: QVQLKESGPGLVAPSQSLSITCTVSGFSLSRYSVHWVRQPPGKGLEWLGLIWGGGFTDYNSALKSRLSITKDNSKSQVFLKMNSLQTDDTAMYYCAREGVAYWGQGTLVSVSA
VL: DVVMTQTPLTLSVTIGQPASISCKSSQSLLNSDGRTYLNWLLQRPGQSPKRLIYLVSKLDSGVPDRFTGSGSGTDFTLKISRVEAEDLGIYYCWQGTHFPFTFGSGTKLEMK
notes: Mouse IgG; also called parent anti-CD6 mAb; parental mouse anti-CD6 IgG
B1 showed a Kd of 0.01 nM.
